Laboratory results: IntAct's records for PubMed 32851177

B1: Osteopetrosis-associated transmembrane protein 1 (Homo sapiens), Q86WC4 (parent)
chain: MEPGPTAAQRRCSLPPWLPLGLLLWSGLALGALPFGSSPHRVFHDLLSEQQLLEVEDLSLSLLQGGGLGPLSLPPDLPDLDPECRELLLDFANSSAELTGCLVRSARPVRLCQTCYPLFQQVVSKMDNISRAAGNTSESQSCARSLLMADRMQIVVILSEFFNTTWQEANCANCLTNNSEELSNSTVYFLNLFNHTLTCFEHNLQGNAHSLLQTKNYSEVCKNCREAYKTLSSLYSEMQKMNELENKAEPGTHLCIDVEDAMNITRKLWSRTFNCSVPCSDTVPVIAVSVFILFLPVVFYLSSFLHSEQKKRKLILPKRLKSSTSFANIQENSN
partner: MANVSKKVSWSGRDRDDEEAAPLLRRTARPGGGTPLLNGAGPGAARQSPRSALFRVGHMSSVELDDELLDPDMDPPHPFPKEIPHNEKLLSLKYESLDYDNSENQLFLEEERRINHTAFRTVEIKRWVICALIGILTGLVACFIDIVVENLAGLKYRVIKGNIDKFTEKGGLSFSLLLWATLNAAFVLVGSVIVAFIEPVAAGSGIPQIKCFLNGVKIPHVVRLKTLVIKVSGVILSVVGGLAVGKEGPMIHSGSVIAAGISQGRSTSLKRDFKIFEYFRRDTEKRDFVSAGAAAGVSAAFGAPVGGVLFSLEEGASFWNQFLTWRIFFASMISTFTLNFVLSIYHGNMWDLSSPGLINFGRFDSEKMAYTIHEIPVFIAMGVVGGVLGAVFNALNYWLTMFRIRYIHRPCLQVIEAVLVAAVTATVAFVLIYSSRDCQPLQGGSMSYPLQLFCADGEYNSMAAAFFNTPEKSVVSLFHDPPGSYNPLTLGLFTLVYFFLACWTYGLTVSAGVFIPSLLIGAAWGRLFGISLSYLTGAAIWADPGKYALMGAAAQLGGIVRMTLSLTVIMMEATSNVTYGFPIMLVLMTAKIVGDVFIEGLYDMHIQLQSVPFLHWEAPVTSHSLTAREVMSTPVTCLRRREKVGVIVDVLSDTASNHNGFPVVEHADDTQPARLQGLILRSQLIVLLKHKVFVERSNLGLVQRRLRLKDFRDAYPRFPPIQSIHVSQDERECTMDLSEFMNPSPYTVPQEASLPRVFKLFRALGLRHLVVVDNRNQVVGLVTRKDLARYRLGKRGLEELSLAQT

Variants of: B1
Conditions: with clcn7_human CLCN7, P51798

effect of a mutation on the interaction	Variant
decreasing interaction strength	Y300A
